{"source": "patent US20220204643A1", "about": "(published 2022)", "binders": {"B1": {"name": "TTES1010 (antibody, V domains shown)", "VH": "EVQLVESGGGLVQPGGSLRLSCAASGFTFSSYSMNWVRQAPGKGLEWVSYISSSSSTIYYADSVKGRFTISRDNAKNSLYLQMNSLRAEDTAVYYCASLLGGDPDYWGQGTLVTVSS", "VL": "not shown"}, "B2": {"name": "TTES1001 (antibody, V domains shown)", "VH": "PVQLVQSGAEVKKPGSSVQVSCKGSGGTFSEYGISWLRQAPGQGLEWIGGIIPVLGIPNYAQKFRGRVTITADESTGSAYMEVSSLRSEDTAVYYCAREGLRLARGWFHPWGQGTLVTVTS", "VL": "not shown"}, "B3": {"name": "TBLA1010 (antibody, V domains shown)", "VH": "EVQLVESGGGLVQPGRSLRLSCAASGFPFGDYAMHWVRQAPGKGLEWVSGIGWDSGGIGYADSVKGRFTISRDIAKNSLYLEINSLRPDDTALYYCAKAAATLPYFRFAMDVWGQGTPVTVSS", "VL": "EIVLTQSPGTLSLSPGERATLSCRASQSVSSSYLAWYQQKPGQAPRLLIFGASTRASGIPDRFSGRGSGTEFTLTISRLEPEDFAVYYCQQYDSSPFTFGPGTKVEIKR", "notes": "VH/VL only"}, "B4": {"name": "TLUA1004 (antibody, V domains shown)", "VH": "EVQLVESGGGLVQTGGSLRLSCSASGFTFNNYWMHWVRQAPGKGLLWLSRINTDGSRGHYDDSVQGRFTISRDNAKQTVYLQMDGLRAEDTAVYFCARDGYDFRAFDHWGQGVLVTVSS", "VL": "DIQMTQSPSSLSASVGDKVTMTCRASQFISVYVNWYQQKPGKAPKLLIYTASSLESGVSSRFSGGGSGTDFTLTIRSLQPEDFAIYYCQQTYSTPWTFGPGTRVEIKR", "notes": "VH/VL tied via antigen in summary, not by name in this stretch"}, "B5": {"name": "TLUA1016 (antibody, V domains shown)", "VH": "EVQLLESGGALVQPGGSLRLSCAVSGLTFNRFAMTWVRQAPGKGLEWVSHIGGSGGYTYYADSVKGRFTISRDNSKNTLYLQMNSLRAEDTAVYHCVKLKGIGAMWTYAMDVWGQGTTVTVSS", "VL": "QSVLTQPPSVSGAPGQRVTIPCTGSSSNLGAGYAVHWYQQLPATTPKLLIYANSSRPSGVPDRFSGSRSDTSASLAITGLQAEDEADYYCQSYDSSLSGYVFGTGTWVTVLS", "notes": "as for B4"}, "B6": {"name": "TLUA1001 (antibody, V domains shown)", "VH": "PLQLQESGPGLVKPSETLSLTCSVSGGSIRSSAPFWGWIRQPPGKGLEWIGNIYYNGDTSYSPSLENRVTLFVDTSKNQFSLNLTSVTAADTAVYYCGRIMTPSIDLWGQGKLVTVSS", "VL": "EIVLTQSPGTLSLSPGERATLSCRASQSISSTYLVWYQQKPGQAPRLLIYAASYRATGIPDRFSGSGSGTDFILTISRLEPEDFAVYYCQQYGSSLTFGGGTKVEIKR", "notes": "as for B4"}, "B7": {"name": "TLUS1003 (antibody, V domains shown)", "VH": "QVHLVQSGSEFKKPGASVKISCKTSGYTFTNYAMNWVRQAPGQGLEWVGWINTVTGIPGYAQGFTGRFIISLDTSGRTSYLQINSLQAEDTAVYYCARSGGFGWSRDLDYWGQGTLVTVSS", "VL": "DIVLTQSPLSLPVTPGEPASISCRSSQSLLHSNGVYYLDWYLLKPGQSPQLVIYMGSSRASGVPDRFSGSGSGTDFRLKISRVEAEDVGIYYCMQALQTPWTFGQGTKVEIKR", "notes": "as for B4"}}, "key": {"[1]": {"target": "T1, DIX domain containing 1, transcript variant 2 (human, UniProt Q155Q3 220-683)", "T1 construct": "also called DIXDC1", "T1 sequence": "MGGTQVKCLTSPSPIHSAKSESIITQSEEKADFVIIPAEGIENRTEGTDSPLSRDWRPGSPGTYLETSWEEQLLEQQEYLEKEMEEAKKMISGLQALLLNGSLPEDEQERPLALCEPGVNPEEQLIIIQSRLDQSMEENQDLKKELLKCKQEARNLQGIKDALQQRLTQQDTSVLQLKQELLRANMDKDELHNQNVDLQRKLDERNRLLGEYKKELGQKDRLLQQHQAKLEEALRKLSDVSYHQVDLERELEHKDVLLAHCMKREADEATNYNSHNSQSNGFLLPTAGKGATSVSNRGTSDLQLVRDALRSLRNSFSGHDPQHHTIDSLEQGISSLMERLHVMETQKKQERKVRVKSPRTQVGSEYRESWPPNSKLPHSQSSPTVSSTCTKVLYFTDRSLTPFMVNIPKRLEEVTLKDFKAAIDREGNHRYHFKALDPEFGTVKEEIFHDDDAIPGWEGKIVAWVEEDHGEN"}, "[2]": {"target": "T2, olfactory receptor family 6 subfamily Q member 1 (gene/pseudogene) (human, UniProt Q8NGQ2 1-317)", "T2 construct": "on protein array; also called OR6Q1", "T2 sequence": "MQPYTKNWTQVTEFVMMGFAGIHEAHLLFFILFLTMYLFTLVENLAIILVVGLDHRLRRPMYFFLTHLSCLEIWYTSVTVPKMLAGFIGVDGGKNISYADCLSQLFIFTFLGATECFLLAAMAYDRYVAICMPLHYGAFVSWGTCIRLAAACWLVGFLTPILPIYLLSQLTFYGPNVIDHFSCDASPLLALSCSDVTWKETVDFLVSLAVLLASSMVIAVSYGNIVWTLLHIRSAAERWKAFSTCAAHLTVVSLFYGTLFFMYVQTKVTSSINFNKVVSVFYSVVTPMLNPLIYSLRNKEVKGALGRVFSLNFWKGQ", "experiment": "protein array"}, "[3]": {"target": "T3, annexin A1 (human, UniProt P04083 2-346)", "T3 construct": "on protein array; also called ANXA1", "T3 sequence": "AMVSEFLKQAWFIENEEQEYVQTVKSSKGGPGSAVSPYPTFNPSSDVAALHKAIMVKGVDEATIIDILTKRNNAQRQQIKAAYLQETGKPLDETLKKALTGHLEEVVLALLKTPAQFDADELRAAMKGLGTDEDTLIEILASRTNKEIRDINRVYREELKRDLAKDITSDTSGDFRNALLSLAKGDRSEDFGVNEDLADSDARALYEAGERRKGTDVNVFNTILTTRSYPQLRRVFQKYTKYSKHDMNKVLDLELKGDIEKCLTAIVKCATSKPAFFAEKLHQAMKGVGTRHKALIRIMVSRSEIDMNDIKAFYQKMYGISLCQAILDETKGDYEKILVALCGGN", "experiment": "protein array, with experimental replicate"}, "[4]": {"target": "T4, family with sequence similarity 177 member A1, transcript variant 2 (human, UniProt Q8N128 1-213)", "T4 construct": "on protein array; also called FAM177A1", "T4 sequence": "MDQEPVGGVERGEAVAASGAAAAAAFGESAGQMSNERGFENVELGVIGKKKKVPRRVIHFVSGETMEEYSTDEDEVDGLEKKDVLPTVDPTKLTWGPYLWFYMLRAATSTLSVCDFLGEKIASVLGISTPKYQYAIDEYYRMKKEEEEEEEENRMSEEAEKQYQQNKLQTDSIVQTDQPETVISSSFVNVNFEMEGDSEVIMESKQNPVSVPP", "experiment": "protein array"}, "[5]": {"target": "T5, Killer cell lectin like receptor g2 (human, UniProt A4D1S0 1-409)", "T5 construct": "on protein array; also called KLRG2", "T5 sequence": "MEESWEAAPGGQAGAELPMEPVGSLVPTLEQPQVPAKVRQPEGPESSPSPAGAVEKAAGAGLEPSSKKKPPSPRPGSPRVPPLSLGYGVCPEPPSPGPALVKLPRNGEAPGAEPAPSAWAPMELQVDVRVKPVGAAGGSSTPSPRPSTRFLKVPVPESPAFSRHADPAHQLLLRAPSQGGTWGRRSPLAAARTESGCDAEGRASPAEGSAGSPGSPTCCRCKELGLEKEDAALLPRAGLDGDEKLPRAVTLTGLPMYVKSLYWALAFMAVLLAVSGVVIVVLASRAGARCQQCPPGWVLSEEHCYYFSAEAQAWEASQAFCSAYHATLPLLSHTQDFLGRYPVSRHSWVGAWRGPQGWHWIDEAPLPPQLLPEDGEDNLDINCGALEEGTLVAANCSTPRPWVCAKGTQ", "experiment": "protein array"}, "[6]": {"target": "T6, tripartite motif containing 35, transcript variant 1 (human, UniProt Q9UPQ4 1-493, limits assumed)", "T6 construct": "on protein array; also called TRIM35", "T6 sequence": "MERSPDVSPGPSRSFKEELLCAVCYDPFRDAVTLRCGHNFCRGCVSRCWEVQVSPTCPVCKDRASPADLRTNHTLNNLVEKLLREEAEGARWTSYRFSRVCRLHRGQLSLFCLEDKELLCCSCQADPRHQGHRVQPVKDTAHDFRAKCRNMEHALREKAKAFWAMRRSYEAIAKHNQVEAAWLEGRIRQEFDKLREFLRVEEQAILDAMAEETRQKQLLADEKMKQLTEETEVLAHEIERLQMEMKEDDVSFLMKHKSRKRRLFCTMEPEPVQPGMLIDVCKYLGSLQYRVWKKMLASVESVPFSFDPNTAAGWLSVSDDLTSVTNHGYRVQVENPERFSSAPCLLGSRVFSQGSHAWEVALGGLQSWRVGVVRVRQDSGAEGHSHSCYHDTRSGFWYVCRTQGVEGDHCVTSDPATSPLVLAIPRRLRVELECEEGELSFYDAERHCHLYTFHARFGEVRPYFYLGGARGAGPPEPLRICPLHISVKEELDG", "experiment": "protein array"}, "[7]": {"target": "T7, FMR1 autosomal homolog 2 (human, UniProt P51116 1-673)", "T7 construct": "on protein array; also called FXR2", "T7 sequence (P51116 whole entry Q252H)": "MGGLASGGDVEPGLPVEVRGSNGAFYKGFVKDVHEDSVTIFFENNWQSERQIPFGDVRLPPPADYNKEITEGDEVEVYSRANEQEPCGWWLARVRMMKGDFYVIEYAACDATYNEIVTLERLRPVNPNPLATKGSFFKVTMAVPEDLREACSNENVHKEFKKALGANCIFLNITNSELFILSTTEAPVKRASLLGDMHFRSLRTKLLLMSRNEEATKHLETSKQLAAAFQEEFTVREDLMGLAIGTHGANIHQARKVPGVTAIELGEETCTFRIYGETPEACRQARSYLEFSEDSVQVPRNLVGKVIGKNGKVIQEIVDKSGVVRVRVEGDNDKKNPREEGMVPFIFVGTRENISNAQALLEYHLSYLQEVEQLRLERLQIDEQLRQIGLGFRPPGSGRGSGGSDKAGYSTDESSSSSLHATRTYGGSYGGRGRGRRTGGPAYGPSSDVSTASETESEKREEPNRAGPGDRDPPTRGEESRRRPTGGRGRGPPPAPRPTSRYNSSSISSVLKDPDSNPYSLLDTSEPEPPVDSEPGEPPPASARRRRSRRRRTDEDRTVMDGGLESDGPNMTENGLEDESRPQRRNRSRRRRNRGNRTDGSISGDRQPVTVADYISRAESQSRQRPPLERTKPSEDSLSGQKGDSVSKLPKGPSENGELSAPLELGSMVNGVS", "experiment": "protein array"}, "[8]": {"target": "T8, methyltransferase like 21C (human, UniProt Q5VZV1 1-264)", "T8 construct": "on protein array; also called METTL21C", "T8 sequence (Q5VZV1 whole entry)": "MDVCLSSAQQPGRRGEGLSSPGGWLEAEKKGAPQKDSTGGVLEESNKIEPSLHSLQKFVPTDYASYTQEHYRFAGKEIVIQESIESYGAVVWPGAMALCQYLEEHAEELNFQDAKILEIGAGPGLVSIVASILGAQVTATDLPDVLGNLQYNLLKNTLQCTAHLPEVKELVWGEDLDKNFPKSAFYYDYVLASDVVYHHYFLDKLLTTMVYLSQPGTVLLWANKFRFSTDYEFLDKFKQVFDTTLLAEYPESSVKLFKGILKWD", "experiment": "protein array"}}}
{"binder": "B1", "values": [{"measurement": "binding result", "setting": "[1]", "result": "binds"}]}
{"binder": "B2", "values": [{"measurement": "binding result", "setting": "[1]", "result": "binds"}]}
{"binder": "B3", "values": [{"measurement": "binding result", "setting": "[2]", "result": "binds"}]}
{"binder": "B4", "values": [{"measurement": "binding result", "setting": "[3]", "result": "binds"}]}
{"binder": "B5", "values": [{"measurement": "binding result", "setting": "[4]", "result": "binds"}]}
{"binder": "B6", "values": [{"measurement": "binding result", "setting": "[5]", "result": "binds"}, {"measurement": "binding result", "setting": "[6]", "result": "binds"}, {"measurement": "binding result", "setting": "[7]", "result": "binds"}]}
{"binder": "B7", "values": [{"measurement": "binding result", "setting": "[8]", "result": "binds"}]}
